According to PMC5688128, “Structural basis for tRNA-dependent cysteine biosynthesis” (Nature Communications, 2017):

B1: Sep-tRNA:Cys-tRNA synthase (SepCysS), Methanocaldococcus jannaschii (enzyme)
chain: DKYKNLTRSLTREFINLNPIQRGGILPKEAKKAVYEYWDGYSVCDYCHGRLDEVTCPPIKDFLEDIAKFLNMDCARPTHGAREGKFIVMHAICKEGDYVVLDKNAHYTSYVAAERAKLNVAEVGYEEEYPTYKINLEGYKEVIDNLEDKGKNVGLILLTHVDGEYGNLNDAKKVGKIAKEKGIPFLLNCAYTVGRMPVNGKEVKADFIVASGHKSMAASAPCGILAFSEEFSDKITKTSEKFPVKEIEMLGCTSRGLPIVTLMASFPHVVERVKKWDEELKKTRYVVDELEKIGFKQLGIKPKEHDLIKFETPVLDEIAKKDKRRGFFFYDELKKRGIGGIRAGVTKEIKMSVYGLEWEQVEYVVNAIKEIVESCK
modifications: PLP covalently bound to the side chain of Lys234
notes: Sep-tRNA:Cys-tRNA synthase (SepCysS) of Methanocaldococcus jannaschii; wild type; large domain Gly43-Lys295, small domain Trp296-Lys396; Homodimer
B2: SepCysE (SepRS/SepCysS pathway enhancer), Methanocaldococcus jannaschii (natural protein)
chain: MRVEYSKDLIRKGISTISQLKKAKIRVEKDDKKISYKDAKPGKIDVNEFKKAIYLLIEADDFLYKKAPKHELNEEEAKEFCKLIIKCQEHLNKILANFGFEFEEKEIDEGALYIVSNKKLFKKLKNKNPNLKVVCTEGMLDIEDMRAIGVPEKALEGLKKKVEIARKNVERFIEKYKPEKIFVVVEDDKDELLYLRAKNLYNAEKLDADEILD
notes: SepCysE of Methanocaldococcus jannaschii; wild type
B3: O-phosphoseryl-tRNA synthetase (SepRS), Methanocaldococcus jannaschii (enzyme)
chain: MRFDIKKVLELAEKDFETAWRETRALIKDKHIDNKYPRLKPVYGKPHPVMETIERLRQAYLRMGFEEMINPVIVDEMEIYKQFGPEAMAVLDRCFYLAGLPRPDVGLGNEKVEIIKNLGIDIDEEKKERLREVLHLYKKGAIDGDDLVFEIAKALNVSNEMGLKVLETAFPEFKDLKPESTTLTLRSHMTSGWFITLSSLIKKRKLPLKLFSIDRCFRREQREDRSHLMSYHSASCVVVGEDVSVDDGKVVAEGLLAQFGFTKFKFKPDEKKSKYYTPETQTEVYAYHPKLGEWIEVATFGVYSPIALAKYNIDVPVMNLGLGVERLAMIIYGYEDVRAMVYPQFYEYRLSDRDIAGMIRVDKVPILDEFYNFANELIDICIANKDKESPCSVEVKREFNFNGERRVIKVEIFENEPNKKLLGPSVLNEVYVYDGNIYGIPPTFEGVKEQYIPILKKAKEEGVSTNIRYIDGIIYKLVAKIEEALVSNVDEFKFRVPIVRSLSDINLKIDELALKQIMGENKVIDVRGPVFLNAKVEIK
notes: O-phosphoseryl-tRNA synthetase (SepRS) of Methanocaldococcus jannaschii; wild type; source: E. coli B834(DE3) plus pRARE2, purified (heat treatment 75 °C, HisTrap, Heparin, Superdex 200)
B4: CTD-truncated SepCysE of M. jannaschii (domain or fragment, Methanocaldococcus jannaschii, UniProt Q58876 1-110, looked up)
chain: MRVEYSKDLIRKGISTISQLKKAKIRVEKDDKKISYKDAKPGKIDVNEFKKAIYLLIEADDFLYKKAPKHELNEEEAKEFCKLIIKCQEHLNKILANFGFEFEEKEIDEG
notes: also called SepCysE(CTD)-truncated; source: E. coli B834(DE3) plus pRARE2, purified within the transsulfursome (same procedure as the wild type)
B5: SepCysE(del_linker1) of M. jannaschii, 10 residues of linker1 truncated (natural protein, Methanocaldococcus jannaschii)
chain: MRVEYSKDLIRKGISTISQLKKAKSYKDAKPGKIDVNEFKKAIYLLIEADDFLYKKAPKHELNEEEAKEFCKLIIKCQEHLNKILANFGFEFEEKEIDEGALYIVSNKKLFKKLKNKNPNLKVVCTEGMLDIEDMRAIGVPEKALEGLKKKVEIARKNVERFIEKYKPEKIFVVVEDDKDELLYLRAKNLYNAEKLDADEILD
notes: source: E. coli B834(DE3) plus pRARE2, purified within the transsulfursome (same procedure as the wild type)

Key:
[1] = target: T1, SepRS (SepRS-SepCysE-SepCysS ternary complex, transsulfursome) (Methanocaldococcus jannaschii, UniProt Q59054); experiment: X-ray crystal structure, […] Å; type: binding; conditions: 10 mM ATP in crystallisation, pH 7.0; active site, Arg228, Glu230, His237, Tyr240; bent ATP
T1 construct: gene sepS; recombinant from E. coli B834(DE3), pET-15b; SepRS tetramer; only SepRS and SepCysE N-helix (Met1-Lys24) visible; with SepRS/SepCysS pathway enhancer SepCysE; O-phospho-L-seryl-tRNA:Cys-tRNA synthase

[2] = target: T2, SepCysS (SepCysE-SepCysS-tRNA^Cys complex) (Methanocaldococcus jannaschii, UniProt Q59072); experiment: X-ray crystal structure, […] Å; type: binding; conditions: covalent; Lys234; crystallised at pH 5.0 with tRNA^Cys
T2 construct: gene pscS; recombinant, coexpressed with SepCysE in E. coli B834(DE3); SepCysS homodimer; co-crystal with tRNA^Cys; with SepRS/SepCysS pathway enhancer SepCysE
T2 sequence (Q59072 whole entry, one chain of several): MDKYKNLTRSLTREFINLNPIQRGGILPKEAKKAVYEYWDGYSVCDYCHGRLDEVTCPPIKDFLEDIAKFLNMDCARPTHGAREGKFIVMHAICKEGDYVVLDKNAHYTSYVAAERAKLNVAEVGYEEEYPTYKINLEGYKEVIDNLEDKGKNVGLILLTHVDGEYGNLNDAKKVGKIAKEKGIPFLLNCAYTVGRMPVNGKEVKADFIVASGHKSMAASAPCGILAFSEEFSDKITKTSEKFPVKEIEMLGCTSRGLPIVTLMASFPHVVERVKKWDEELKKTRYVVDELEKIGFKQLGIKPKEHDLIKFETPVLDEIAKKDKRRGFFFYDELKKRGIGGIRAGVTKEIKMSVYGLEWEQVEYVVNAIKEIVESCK

[3] = target: the molecule itself; experiment: crystal structure; SepCysE-SepCysS mixed with tRNA^Cys at a molar ratio of 1:1.2, protein 16 mg/ml; 0.1 M MES pH 5.0, 2.4 M ammonium sulfate; 2.6 Å; PDB 5X6B
[4] = target: B3; experiment: negative stain electron microscopy; purified wild type and del_linker1 transsulfursome adsorbed on carbon-coated grids; 20 mM HEPES-KOH pH 8.0, 200 mM KCl, 5 mM MgCl2; uranyl formate; class averaging; conditions: both partners purified
[5] = target: the molecule itself; experiment: crystal structure; 50 μM SepRS-SepCysE-SepCysS(del_RRF), 30 μM tRNA^Cys, 10 mM ATP; 0.1 M Tris-HCl pH 7.0, 0.3 M ammonium sulfate, 36% MPD; 3.10 Å; only SepRS and the N-helix of SepCysE visible; PDB 5X6C
[6] = target: B3; experiment: SEC-SAXS; SepCysE(CTD)-truncated transsulfursome in solution; Superdex 200 Increase 10/300 GL, room temperature; scattering compared with models from the crystal structures; conditions: both partners purified

Molecule: Nc1ncnc2c1ncn2[C@@H]1O[C@H](COP(=O)(O)OP(=O)(O)OP(=O)(O)O)[C@@H](O)[C@H]1O [ATP]
- X-ray crystal structure, 3.1 Å [1]: ATP was observed in the active sites of SepRS.

Molecule: Cc1ncc(COP(=O)(O)O)c(C=O)c1O [pyridoxal-5′-phosphate]
- X-ray crystal structure, 2.6 Å [2]: PLP was covalently bound to the side chain of the conserved Lys234

Molecule: B1
- stoichiometry N [3]: 2

Molecule: B2
- binding result [4]: binds
- stoichiometry N [3]: 2

Molecule: B3
- stoichiometry N [5]: 4

Molecule: B4
- binding result [6]: binds

Molecule: B5
- binding result [4]: binds
